Test results as given in PMC3102279.

B1: Mps1 (Homo sapiens) (protein)
chain: MESEDLSGRELTIDSIMNKVRDIKNKFKNEDLTDELSLNKISADTTDNSGTVNQIMMMANNPEDWLSLLLKLEKNSVPLSDALLNKLIGRYSQAIEALPPDKYGQNESFARIQVRFAELKAIQEPDDARDYFQMARANCKKFAFVHISFAQFELSQGNVKKSKQLLQKAVERGAVPLEMLEIALRNLNLQKKQLLSEEEKKNLSASTVLTAQESFSGSLGHLQNRNNSCDSRGQTTKARFLYGENMPPQDAEIGYRNSLRQTNKTKQSCPFGRVPVNLLNSPDCDVKTDDSVVPCFMKRQTSRSECRDLVVPGSKPSGNDSCELRNLKSVQNSHFKEPLVSDEKSSELIITDSITLKNKTESSLLAKLEETKEYQEPEVPESNQKQWQSKRKSECINQNPAASSNHWQIPELARKVNTEQKHTTFEQPVFSVSKQSPPISTSKWFDPKSICKTPSSNTLDDYMSCFRTPVVKNDFPPACQLSTPYGQPACFQQQQHQILATPLQNLQVLASSSANECISVKGRIYSILKQIGSGGSSKVFQVLNEKKQIYAIKYVNLEEADNQTLDSYRNEIAYLNKLQQHSDKIIRLYDYEITDQYIYMVMECGNIDLNSWLKKKKSIDPWERKSYWKNMLEAVHTIHQHGIVHSDLKPANFLIVDGMLKLIDFGIANQMQPDTTSVVKDSQVGTVNYMPPEAIKDMSSSRENGKSKSKISPKSDVWSLGCILYYMTYGKTPFQQIINQISKLHAIIDPNHEIEFPDIPEKDLQDVLKCCLKRDPKQRISIPELLAHPYVQIQTHPVNQMAKGTTEEMKYVLGQLVGLNSPNSILKAAKTLYEHYSGGESHNSSSSKTFEKKRGKK
B2: Aurora B (Homo sapiens) (protein)
chain: SNVQPTAAPGQKVMENSSGTPDILTRHFTIDDFEIGRPLGKGKFGNVYLAREKKSHFIVALKVLFKSQIEKEGVEHQLRREIEIQAHLHHPNILRLYNYFYDRRRIYLILEYAPRGELYKELQKSCTFDEQRTATIMEELADALMYCHGKKVIHRDIKPENLLLGLKGELKIADFGWSVHAPSLRRKTMCGTLDYLPPEMIEGRMHNEKVDLWCIGVLCYELLVGNPPFESASHNETYRRIVKVDLKFPASVPMGAQDLISKLLRHNPSERLPLAQVSAHPWVRANSRRVLPPSALQSVA

How the values were obtained:
purified protein [1] = substrate: Nc1ncnc2c1ncn2[C@@H]1O[C@H](COP(=O)(O)OP(=O)(O)OP(=O)(O)O)[C@@H](O)[C@H]1O; assay: purified protein; format: biochemical, Homo sapiens; settings: Mg2+
purified protein [2] = substrate: Nc1ncnc2c1ncn2[C@@H]1O[C@H](COP(=O)(O)OP(=O)(O)OP(=O)(O)O)[C@@H](O)[C@H]1O; assay: purified protein; settings: Mg2+

Row | Protein | Km (purified protein [1]) [µM] | Km (purified protein [2]) [µM]
1 | B1 | 4.9 | –
2 | B2 | – | 16.5
